Tested on: MS2 coat protein
Test: apparent KD of MS2 coat protein; designed switch direction (-1 OFF switch, 1 ON switch): 1; higher = weaker reporter binding
In short: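 Each step of the titration lasted 0.8–1.5 h at the lowest concentration and 10–20 min at the highest. The protein, SNAP-549-labelled MS2 coat protein, went from 0.7 or 1.5 nM doubling to 3 µM over RNA switches transcribed on Illumina chips by stalled E. coli RNA polymerase. Normalised cluster fluorescence was curve-fitted, and the per-design median over clusters is given as apparent KD.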

[1] = Eterna round: R95, input ligand: FMN 200 uM
[2] = Eterna round: R95, input ligand: microRNA oligo, concentration not stated
[3] = Eterna round: R95, input ligand: none
[4] = input ligand: microRNA oligo, concentration not stated

| Sequence | apparent KD of MS2 coat protein [1] | apparent KD of MS2 coat protein [2] | apparent KD of MS2 coat protein [3] | apparent KD of MS2 coat protein (input ligand: FMN 200 uM) | apparent KD of MS2 coat protein [4] | apparent KD of MS2 coat protein (input ligand: none) |
| --- | --- | --- | --- | --- | --- | --- |
| AGUCCAGCCUGAGCUGGACAAAAGCAUGUACAUGAGGAUCACCCAUGUCAUGUACAAGCUUUUUGCUCGUCUUAUUA [Mat - hsa-mir-208a - Mod of JL - D24] (puzzle: Sensor for hsa-mir-208a) | 0.694 µM | 0.0163 µM | 0.722 µM |  |  |  |
| AGUCCAGCCUGAGCUGGACAAAAGCAUGUACAUGAGGAUCACCCAUGUUAUGUACAAGCUUUUUGCUCGUCUUAAUA [Zipper 49 - 10] (puzzle: Sensor for hsa-mir-208a) | 0.165 µM | 0.0143 µM | 0.238 µM |  |  |  |
| AGUCCAGCCUGAGCUGGACAAAAGCAUGUACAUGAGGAUCACCCAUGUUCAUGUACAAGCUUUUUGCUCGUAUUAAA [Mat - hsa-mir-208a - Mod of JL - 52] (puzzle: Sensor for hsa-mir-208a) | 0.555 µM | 0.0148 µM | 0.566 µM |  |  |  |
| AGUCCAGCCUGAGCUGGACAAAAGCAUGUACAUGAGGAUCACCCAUGUUCAUGUACAAGCUUUUUGCUCGUCUUAAU [salish99_208a_r3_027] (puzzle: Sensor for hsa-mir-208a) | 0.48 µM | 0.014 µM | 0.643 µM |  |  |  |
| AGUCCAGCCUGAGCUGGACAAAAGCAUGUACAUGAGGAUCACCCAUGUUCAUGUACAAGCUUUUUGCUCGUCUUAGA [salish99_208a_r3_059] (puzzle: Sensor for hsa-mir-208a) | 0.709 µM | 0.0154 µM | 0.732 µM |  |  |  |
| AGUCCAGCCUGAGCUGGACAAAAGUAUGUACAUGAGGAUCACCCAUGUCAUGUACAAGCUUUUUGCUCGUCUUAAUA [Zipper 49 - 9] (puzzle: Sensor for hsa-mir-208a) | 0.404 µM | 0.0241 µM | 0.511 µM |  |  |  |
| AGUCCAGCCUGAGCUGGACAAGAGCAUGUACAUGAGGAUCACCCAUGUUCAUGUACAAGCUUUUUGCUCGUCUUAAA [Zipper 52 - 2] (puzzle: Sensor for hsa-mir-208a) | 0.399 µM | 0.0127 µM | 0.565 µM |  |  |  |
| AGUCCAGCCUGAGCUGGACAGAAGCAUGUACAUGAGGAUCACCCAUGUUCAUGUACAAGCUUUUUGCUCGUCUUAAA [Zipper 52 - 3] (puzzle: Sensor for hsa-mir-208a) | 0.48 µM | 0.0142 µM | 0.436 µM |  |  |  |
| AGUCCAGCCUGAGCUGGACAUUAGCAUGUACAUGAGGAUCACCCAUGUCAUGUACAAGCUAUUUGCUCGUCUUAAAA [Mat - Sensor - JL mod - D76] (Eterna round: R96, puzzle: Sensor for hsa-mir-208a) |  |  |  | 0.592 µM | 0.0157 µM | 0.455 µM |
| AGUCCAGCGAAAGCUGGACAAAAGCAUGUACAUGAGGAUCACCCAUGUUCAUGUACAAGUUUUUUGCUCGUCUUAAA [JL mod - D95 - 13] (puzzle: Sensor for hsa-mir-208a) | 0.0337 µM | 0.0104 µM | 0.032 µM |  |  |  |
| AGUCCAGCGAAAGCUGGACAAGAGCAUGUACAUGAGGAUCACCCAUGUUCAUGUACAAGCUUUUUGCUCGUCUUAAA [JL mod - D95 - 2] (puzzle: Sensor for hsa-mir-208a) | 0.384 µM | 0.0143 µM | 0.439 µM |  |  |  |
| AGUCCGGCCUGAGCUGGACUGAAGCAUGUACAUGAGGAUCACCCAUGUUCAUGUGCAGGCUUUUUGCUCGUCUUGUG [JL-shm-2.04 JL mod] (Eterna round: R96, puzzle: Sensor for hsa-mir-208a) |  |  |  | 0.115 µM | 0.0126 µM | 0.103 µM |
| AGUCCGGCCUGAGCUGGACUGAAGCAUGUACAUGAGGAUCACCCAUGUUCAUGUGCAGGCUUUUUGCUCGUCUUGUG [JL-shm-2.04 JL mod] (puzzle: Sensor for hsa-mir-208a) | 0.0977 µM | 0.0134 µM | 0.124 µM |  |  |  |
| AGUCCUGAAAAGAAAAUACAGAGAUAUGUACAUGAGGAUCACCCAUGUCAUGUACAAGUUCUAUGCUCGUCAUAUAA [Sensorship 21 - Jieux - Sensor for hsa-mir-208a] (puzzle: Sensor for hsa-mir-208a) | 0.202 µM | 0.0636 µM | 0.262 µM |  |  |  |
| AGUGGACAUGAGGAUCACCCAUGUAUGCUGGCAUGAGGAUAUCCGAUUCGUUUCGACUAAGGAGAAGGCAUAGCCC [Geonla] (Eterna round: R96, puzzle: Same State 1) |  |  |  | 0.037 µM | 0.0989 µM | 0.116 µM |
| AUAAAACAUGAGGAUCACCCAUGUCAACAAAGUCGAGGAUAUGGGCAAAUAAAAUAUGAACCAGAAGGCGAAUAAU [salish99_ss1_r3_019] (puzzle: Same State 1) | 0.0358 µM | 0.221 µM | 0.31 µM |  |  |  |

| Sequence | apparent KD of MS2 coat protein [1] | apparent KD of MS2 coat protein [2] | apparent KD of MS2 coat protein [3] | apparent KD of MS2 coat protein (input ligand: FMN 200 uM) | apparent KD of MS2 coat protein [4] | apparent KD of MS2 coat protein (input ligand: none) |
| --- | --- | --- | --- | --- | --- | --- |
| AUAAAACAUGAGGAUCACCCAUGUCAACAAAGUCGAGGAUAUGGGCAAUUAAAAUAAGAACCAGAAGGCGAAUAAU [salish99_ss1_r3_025] (Eterna round: R96, puzzle: Same State 1) |  |  |  | 0.0357 µM | 0.214 µM | 0.249 µM |
| AUAAAACAUGAGGAUCACCCAUGUCAACAAAGUCGAGGAUAUGGGCAAUUAAAAUAAGAACCAGAAGGCGAAUAAU [salish99_ss1_r3_025] (puzzle: Same State 1) | 0.0264 µM | 0.138 µM | 0.4 µM |  |  |  |
| AUAAAACAUGAGGAUCACCCAUGUCAACAAAGUCGAGGAUAUGGGUAAAUAAAAUAAGAACCAGAAGGCGAAUAAU [salish99_ss1_r3_028] (Eterna round: R96, puzzle: Same State 1) |  |  |  | 0.122 µM | 0.713 µM | 0.941 µM |
| AUAAAACAUGAGGAUCACCCAUGUCAACAAAGUCGAGGAUAUGGGUAAAUAAAAUAAGAACCAGAAGGCGAAUAAU [salish99_ss1_r3_028] (puzzle: Same State 1) | 0.0835 µM | 0.283 µM | 0.163 µM |  |  |  |
| AUAAAACAUGAGGAUCACCCAUGUCAUCAAAGUCGAGGAUAUGGGCAAAUAAAAUAAGAACCAGAAGGCGAAUAAU [salish99_ss1_r3_043] (puzzle: Same State 1) | 0.106 µM | 0.298 µM | 0.501 µM |  |  |  |
| AUAAAUAAACAUGAGGAUCACCCAUGUGUUAUAUAAGCAAAUAAAUAAAUAAAUAAAUAAAUAAAUAAAUAAAUAAA [RNA Sequence] (puzzle: Sensor for hsa-mir-208a version 2) | 0.0255 µM | 0.0261 µM | 0.0292 µM |  |  |  |
| AUAAAUAACACAGGAUAUCCACACGAAUAGUGCGGAGAAGGGUGAACGUCGGCUCUCGCCAACAUGAGGAUCACCCAUGUAAAA [Tediissobe] (Eterna round: R96, puzzle: Same State NG 1) |  |  |  | 0.0644 µM | 0.0127 µM | 0.0315 µM |
| AUAACACUGGCAGGAUAUGGGAUUGGAAGUGUUCCAGAAGGGCCAGAACGGCGAUGGACAUGAGGAUCACCCAUGUCUUAGCCU [MOD Powerstrip SSNG 1.4 (Unstable)] (Eterna round: R96, puzzle: Same State NG 1) |  |  |  | 0.013 µM | 0.00766 µM | 0.00948 µM |
| AUAAGAAACACAGGAUAUACCGUGCUUAACGCGGUAGAAGGGUGGGACAUGAGGAUCACCCAUGUGGUCCGGGCGCCGGACCGC [Erarlaa] (Eterna round: R96, puzzle: Same State NG 1) |  |  |  | 0.934 µM | 0.296 µM | 0.309 µM |
| AUAAGGCAAGCUUUUUUCUCGUAAUGUAAACAUGAGGAUCACCCAUGUGCCCAUCCUGGAUCUUUGGAUCGCAGAAC [Usbexe] (puzzle: Sensor for hsa-mir-208a) | 0.0346 µM | 0.0259 µM | 0.0407 µM |  |  |  |
| AUAAGGCAAGCUUUUUUCUCGUAGUAUAAACAUGAGGAUCACCCAUGUGCCCACCCUGGAUCUUUGGAUCGCAGAAC [Vetera] (puzzle: Sensor for hsa-mir-208a) | 0.0268 µM | 0.0165 µM | 0.0263 µM |  |  |  |
| AUAAGGCAAGCUUUUUUCUCGUAGUGUAAACAUGAGGAUCACCCAUGUGCCCACCCUAGAUCUUUGGAUCGCAGAAC [Atrageus] (puzzle: Sensor for hsa-mir-208a) | 0.0228 µM | 0.0168 µM | 0.0268 µM |  |  |  |
| AUAAGGCAAGCUUUUUUCUCGUAGUGUAAACAUGAGGAUCACCCAUGUGCUCGCCCUGGAUCUUUGGAUCGCAGAAA [Geedbigexe] (puzzle: Sensor for hsa-mir-208a) | 0.0467 µM | 0.0186 µM | 0.0453 µM |  |  |  |
| AUAAGUUCGAUGCUCGUCUCUCCGUACAAACAUGAGGAUCACCCAUGUGAUCGGGCAGUAGCCCGAUCAGUAUGGCC [Soriin] (puzzle: Sensor for hsa-mir-208a) | 0.0393 µM | 0.0205 µM | 0.0478 µM |  |  |  |
| AUAAGUUUGAUGCUCGUCUCUCCGUACAAACAUGAGGAUCACCCAUGUGGUCGGGAAGUAGCCCAGCCAGUAUGGCC [Anriquradi] (puzzle: Sensor for hsa-mir-208a) | 0.0153 µM | 0.0199 µM | 0.0171 µM |  |  |  |
| AUAAUAAUAACUGAGGAUAUGUUGAUAAAGACAUGAGGAUCACCCAUGUGAAAUAAAAUAAUAAUACAGAAGGCAGAAUAAUAAA [JMF's solution 1] (puzzle: Same State 2) | 0.023 µM | 0.0297 µM | 0.0257 µM |  |  |  |

— the supplement of paper PMC9170038
